Source: article PMC5418573

Tests used:
[1] = target: recombinant PolB1 of Sulfolobus solfataricus (Sulfolobus solfataricus) (UniProt P26811)
[2] = target: recombinant PolB1 of Sulfolobus solfataricus (Sulfolobus solfataricus) (UniProt P26811); assay: native MS; PolB1-HE complex at 4.2 μM in 50 mM ammonium acetate, nano ESI, Synapt G2S

UniProt P26811, sequence (P26811 36-882): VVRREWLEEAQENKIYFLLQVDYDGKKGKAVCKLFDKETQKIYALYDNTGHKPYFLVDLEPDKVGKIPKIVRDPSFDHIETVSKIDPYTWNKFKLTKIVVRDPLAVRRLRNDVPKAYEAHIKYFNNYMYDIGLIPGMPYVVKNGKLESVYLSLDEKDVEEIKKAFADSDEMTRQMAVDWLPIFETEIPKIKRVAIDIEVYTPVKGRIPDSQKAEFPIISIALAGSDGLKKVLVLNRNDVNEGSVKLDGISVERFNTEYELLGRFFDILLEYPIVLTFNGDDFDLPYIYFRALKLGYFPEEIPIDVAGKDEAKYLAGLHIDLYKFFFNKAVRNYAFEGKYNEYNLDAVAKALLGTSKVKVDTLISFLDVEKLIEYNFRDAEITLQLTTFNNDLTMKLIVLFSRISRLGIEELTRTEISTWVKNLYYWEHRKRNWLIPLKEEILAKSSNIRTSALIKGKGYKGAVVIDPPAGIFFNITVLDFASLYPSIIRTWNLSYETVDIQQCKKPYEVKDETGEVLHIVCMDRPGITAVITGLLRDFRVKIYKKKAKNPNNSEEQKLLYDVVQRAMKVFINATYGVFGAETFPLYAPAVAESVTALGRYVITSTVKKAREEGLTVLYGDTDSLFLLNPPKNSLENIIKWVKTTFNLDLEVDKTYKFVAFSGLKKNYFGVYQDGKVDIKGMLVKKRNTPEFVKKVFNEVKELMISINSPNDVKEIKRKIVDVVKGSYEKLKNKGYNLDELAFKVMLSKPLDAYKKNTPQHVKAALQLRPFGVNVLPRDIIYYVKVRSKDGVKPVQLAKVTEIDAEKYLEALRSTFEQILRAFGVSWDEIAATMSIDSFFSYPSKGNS

kinetics of excision of the 3′ nucleotide (dGMP) [1] [fold]	stoichiometry N [2]	Substance
6		PBP1ΔC, PBP1 C-terminal tail deletion mutant (from UniProt Q980X5 1-78) (domain or fragment)
	1	recombinant PBP2 of Sulfolobus solfataricus (SSO6202) (natural protein)
	1	recombinant PBP1 of Sulfolobus solfataricus (SSO0150) (from UniProt Q980X5 1-118) (natural protein)
